The record followed here is publication PMC3656090 (PLoS Pathogens, 2013).

The test concerns the target T1, synthetic peptide comprising the epitope II region (residues 434-446) of HCV E2, strain H77 (Hepatitis C virus, strain H77).
T1 chain: NTGWLAGLFYQHK
Briefly: crystal structure; Fab 10 mg/ml + epitope II peptide (0.9 mg/ml for HC84-1, 1.5 mg/ml for HC84-27), complex formed overnight at 277 K; crystals at 293 K, hanging drop, 10 mM TRIS pH 8.0, 150 mM NaCl. The settings on record: both partners purified.

B1: Fab fragment of human monoclonal antibody HC84-27 (Fab, V domains shown)
VH: QVTLKESGAEVKKPGSSVKVSCEASGGTLSNYVITWVRQAPGQGLEWMGGFIPTFRTAMYAQGFQGRVTITADESTSIAYMELTNLRSEDTAVYYCARGPLSRGYYDYWGQGTLVTVSS
VL: SYVLTQPPSVSVSPGQTARITCSGDKLGDKYASWYQQKPGQSPVLVIYQDNKRPSEIPARFSGSNSGNTATLTISGAQAMDEADYYCQAWDSNTGVFGTGTKLTVL
With B1, the binding result is on record as “binds”.
